In PMC10046596, “Biophysical and Biochemical Characterization of the Binding of the MarR-like Transcriptional Regulator Saro_0803 to the nov1 Promotor and Its Inhibition by Resveratrol” (Biomolecules, 2023):
Positions count from the first letter of the chain named.

Key:
Saro_0803 [1] = molecular target: T1, Saro_0803 (Novosphingobium aromaticivorans, UniProt Q2GA75); assay: ITC (also SPR, Kd […]; EMSA shows inhibition of nov1p^[…]bp binding)
T1 construct: His-tagged Saro_0803 (pET-30a(+)), full-length; homogeneous dimer in solution
T1 sequence (Q2GA75 1-157): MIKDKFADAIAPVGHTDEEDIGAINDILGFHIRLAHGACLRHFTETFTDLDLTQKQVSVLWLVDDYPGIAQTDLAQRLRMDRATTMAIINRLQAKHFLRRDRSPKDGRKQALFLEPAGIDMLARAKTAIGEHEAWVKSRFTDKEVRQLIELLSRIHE

Saro_0803 [2] = molecular target: T2, Saro_0803 (Novosphingobium aromaticivorans DSM …, UniProt Q2GA75 1-157); assay: EMSA; 10 µM protein; ITC: 50 mM Tris-HCl pH 8.0, 200 mM NaCl, 5% DMSO, 25 °C, 20 µM protein, 200 µM DNA; EMSA: 5.0 µM DNA (annealed in 50 mM Tris-HCl pH 8.0, 200 mM NaCl), 37 °C 30; settings: protein: recombinant; tags: His-tag (pET-30a(+), NdeI/XhoI); chain copies: 2
T2 sequence: T1 sequence (Q2GA75 1-157)

[3] = molecular target: the molecule itself; assay: AUC; sedimentation velocity, protein ~1.0 mg/mL, 40,000 rpm for 2 h at 4 °C, c(s) analysis with Sedfit
Saro_0803 W61A = molecular target: T3, Saro_0803 W61A (Novosphingobium aromaticivorans DSM …, UniProt Q2GA75 1-157, W61A); assay: ITC, EMSA; micromolar or submicromolar; ITC: 50 mM Tris-HCl pH 8.0, 200 mM NaCl, 5% DMSO, 25 °C, 20 µM protein, 200 µM DNA; EMSA: 5.0 µM DNA (annealed in 50 mM Tris-HCl pH 8.0, 200 mM NaCl), 37 °C 30; settings: protein: recombinant; tags: His-tag; chain copies: 2
T3 sequence: T1 sequence (Q2GA75 1-157) with W61A

Saro_0803 F43A = molecular target: T4, Saro_0803 F43A (Novosphingobium aromaticivorans DSM …, UniProt Q2GA75 1-157, F43A); assay: as above; settings: protein: recombinant; tags: His-tag; chain copies: 2
T4 sequence: T1 sequence (Q2GA75 1-157) with F43A

Saro_0803 F30A = molecular target: T5, Saro_0803 F30A (Novosphingobium aromaticivorans DSM …, UniProt Q2GA75 1-157, F30A); assay: as above; settings: protein: recombinant; tags: His-tag; chain copies: 2
T5 sequence: T1 sequence (Q2GA75 1-157) with F30A

Saro_0803 F47A = molecular target: T6, Saro_0803 F47A (Novosphingobium aromaticivorans DSM …, UniProt Q2GA75 1-157, F47A); assay: as above; settings: protein: recombinant; tags: His-tag; chain copies: 2
T6 sequence: T1 sequence (Q2GA75 1-157) with F47A

Saro_0803 K55A = molecular target: T7, Saro_0803 K55A (Novosphingobium aromaticivorans DSM …, UniProt Q2GA75 1-157, K55A); assay: ITC; 5% DMSO; ITC: 50 mM Tris-HCl pH 8.0, 200 mM NaCl, 5% DMSO, 25 °C, 20 µM protein, 200 µM DNA; EMSA: 5.0 µM DNA (annealed in 50 mM Tris-HCl pH 8.0, 200 mM NaCl), 37 °C 30; settings: protein: recombinant; tags: His-tag; chain copies: 2
T7 sequence: T1 sequence (Q2GA75 1-157) with K55A

Saro_0803 [4] = molecular target: T2, Saro_0803; assay: as above; settings: protein: recombinant; tags: His-tag (pET-30a(+), NdeI/XhoI); chain copies: 2
Saro_0803 A87R = molecular target: T8, Saro_0803 A87R (Novosphingobium aromaticivorans DSM …, UniProt Q2GA75 1-157, A87R); assay: as above; settings: protein: recombinant; tags: His-tag; chain copies: 2
T8 sequence: T1 sequence (Q2GA75 1-157) with A87R

Saro_0803 R108D = molecular target: T9, Saro_0803 R108D (Novosphingobium aromaticivorans DSM …, UniProt Q2GA75 1-157, R108D); assay: as above; settings: protein: recombinant; tags: His-tag; chain copies: 2
T9 sequence: T1 sequence (Q2GA75 1-157) with R108D

Saro_0803 R108A = molecular target: T10, Saro_0803 R108A (Novosphingobium aromaticivorans DSM …, UniProt Q2GA75 1-157, R108A); assay: as above; settings: protein: recombinant; tags: His-tag; chain copies: 2
T10 sequence: T1 sequence (Q2GA75 1-157) with R108A

Saro_0803 K109E = molecular target: T11, Saro_0803 K109E (Novosphingobium aromaticivorans DSM …, UniProt Q2GA75 1-157, K109E); assay: as above; settings: protein: recombinant; tags: His-tag; chain copies: 2
T11 sequence: T1 sequence (Q2GA75 1-157) with K109E

Saro_0803 K109A = molecular target: T12, Saro_0803 K109A (Novosphingobium aromaticivorans DSM …, UniProt Q2GA75 1-157, K109A); assay: as above; settings: protein: recombinant; tags: His-tag; chain copies: 2
T12 sequence: T1 sequence (Q2GA75 1-157) with K109A

Saro_0803 [5] = molecular target: T2, Saro_0803; assay: EMSA; ITC: 50 mM Tris-HCl pH 8.0, 200 mM NaCl, 5% DMSO, 25 °C, 20 µM protein, 200 µM DNA; EMSA: 5.0 µM DNA (annealed in 50 mM Tris-HCl pH 8.0, 200 mM NaCl), 37 °C 30; settings: protein: recombinant; tags: His-tag (pET-30a(+), NdeI/XhoI); chain copies: 2

With `Oc1ccc(/C=C/c2cc(O)cc(O)c2)cc1` [resveratrol] the Kd (Saro_0803 [1]) was ~35.7 µM.

B1: nov1p58bp with 15 bp 3' deletion (43 bp) (dsDNA)
DNA 1: CCAACGAATGCGCTTGTCTAATTGTTAGCAATACATACAATAT
DNA 2: ATATTGTATGTATTGCTAACAATTAGACAAGCGCATTCGTTGG
B1: no binding (Saro_0803 [2]).

B2: Saro_0803, MarR-like transcriptional regulator of Novosphingobium aromaticivorans DSM 12444 (natural protein, UniProt Q2GA75 1-157, looked up)
chain: T1 sequence (Q2GA75 1-157)
notes: Transcriptional regulator Saro_0803 (MarR family), encoded by gene saro_0803 of Novosphingobium aromaticivorans DSM 12444; theoretical MW of the tagged protein around 18.75 kDa; called full-length in contrast to the truncation 21-157; Cloned into pET-30a(+) by Nde I/Xho I; No removal of the tag is described; also called polyhistidine-tagged Saro_0803; His-tagged Saro_0803; source: E. coli …
With B2 the “stoichiometry N” value [3] was 2.

B3: nov1p22bp (dsDNA)
DNA 1: TAATTGTTAGCAATACATACAA
DNA 2: TTGTATGTATTGCTAACAATTA
B3: binds (Saro_0803 W61A); binds (Saro_0803 F43A); binds (Saro_0803 F30A). The binding result (Saro_0803 F47A) was “binds”, the binding signal (Saro_0803 K55A) was ~3 fold decrease in affinity vs WT and the Kd (Saro_0803 [4]) was ~3.57 µM. For the same molecule, the Kd (Saro_0803 A87R) was ~1.16 µM, the binding result (Saro_0803 R108D) was “no binding” and the binding result (Saro_0803 R108A) was “no binding”. B3: no binding (Saro_0803 K109E); no binding (Saro_0803 K109A).

B4: downstream neighboring fragment (dsDNA)
DNA 1: TATTGCAAGGAGGATGCC
DNA 2: GGCATCCTCCTTGCAATA
B4: no binding (Saro_0803 [5]).

B5: 18-bp upstream fragment (dsDNA)
DNA 1: CCAACGAATGCGCTTGTC
DNA 2: GACAAGCGCATTCGTTGG
B5: no binding (Saro_0803 [5]).
